{
  "source": "paper PMC6748948",
  "about": "“A Bone Morphogenetic Protein (BMP)-derived Peptide Based on the Type I Receptor-binding Site Modifies Cell-type Dependent BMP Signalling” (Scientific Reports, 2019)",
  "molecular_target": "Peptide P3* (BMP9-based peptide from the ALK1-binding site, biotinylated at the N-terminus) (UniProt Q9UK05)",
  "sequence (Q9UK05 320-429)": "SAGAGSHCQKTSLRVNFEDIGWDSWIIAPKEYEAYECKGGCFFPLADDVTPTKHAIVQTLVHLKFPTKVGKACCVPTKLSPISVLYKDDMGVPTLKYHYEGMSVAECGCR",
  "experiment": "SPR; Biacore T200; biotinylated P3* immobilised on streptavidin (SA) chip; ALK1-Fc flowed over, injection 4 min, otherwise as for the CM5 assays; steady-state fit",
  "data": [
    {"substance": "ALK1-Fc (activin receptor like kinase 1, Fc fusion) (from UniProt P37023 22-118)", "values": [
      {"measurement": "Kd", "result": 30, "unit": "mM"}
    ]}
  ]
}
